Data published in US20140038292.

System: T1, Tol1 transposase (851 aa) (Oryzias latipes)
T1 sequence: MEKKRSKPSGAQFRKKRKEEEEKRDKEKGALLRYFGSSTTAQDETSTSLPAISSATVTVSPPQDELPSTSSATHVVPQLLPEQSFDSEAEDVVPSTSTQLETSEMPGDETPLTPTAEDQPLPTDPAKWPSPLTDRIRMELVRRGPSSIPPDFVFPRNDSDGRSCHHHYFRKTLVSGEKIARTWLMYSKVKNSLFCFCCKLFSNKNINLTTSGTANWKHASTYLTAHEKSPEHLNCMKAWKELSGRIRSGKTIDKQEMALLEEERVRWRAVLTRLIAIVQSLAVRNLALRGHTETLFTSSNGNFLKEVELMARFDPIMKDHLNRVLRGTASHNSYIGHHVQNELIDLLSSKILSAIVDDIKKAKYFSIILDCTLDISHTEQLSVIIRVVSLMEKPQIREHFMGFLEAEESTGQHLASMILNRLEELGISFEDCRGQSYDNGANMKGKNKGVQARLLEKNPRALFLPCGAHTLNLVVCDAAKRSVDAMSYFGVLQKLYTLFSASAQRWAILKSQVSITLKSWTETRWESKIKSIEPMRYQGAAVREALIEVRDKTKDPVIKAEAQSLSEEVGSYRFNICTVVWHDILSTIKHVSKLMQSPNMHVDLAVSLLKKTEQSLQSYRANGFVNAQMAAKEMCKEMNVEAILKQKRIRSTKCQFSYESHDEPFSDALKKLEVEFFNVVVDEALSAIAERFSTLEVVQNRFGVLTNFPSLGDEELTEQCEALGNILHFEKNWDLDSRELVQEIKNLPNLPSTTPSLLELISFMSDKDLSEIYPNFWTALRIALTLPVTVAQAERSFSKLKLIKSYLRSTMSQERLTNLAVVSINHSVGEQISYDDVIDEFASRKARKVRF
Assay: cell_activity
Conditions: HeLa, donor 200 ng, helper 800 ng; 8 bp TSD at insertions

## Tol1-tyr element (1855 bp), donor plasmid
  activity (net G418-resistant colonies): 3660
